Here are results for nine molecules from patent publication US20190367560A1.

Bridges are numbered along the chain shown (N, C = ends). Primed or numbered codes have the meaning given here. Where no end group is shown, it is not given here. [ ]: non-standard residue; d: D form. The star is where a group is joined. Biotin = O=C1N[C@H]2[C@H](CS[C@H]2CCCCC(=O)*)N1; Fmoc = O=C(OCC1c2ccccc2-c2ccccc21)*; PEG4′ = not defined here

Experiment [1] has as its target human serum-derived γ-globulin (Wako) (human). Briefly: dynamic binding capacity at 10% breakthrough; Protein A support; residence time 1 min.
Experiment [2] has the same target. Briefly: dynamic binding capacity at 10% breakthrough; Protein A support; residence time 5 min.
Experiment [3] has the same target. Briefly: dynamic binding capacity at 10% breakthrough; Protein A support; residence time 2.5 min.
In experiment [4] the target is IgG. Briefly: SPR (BIAcore T200), 1:1 binding fit. On the technique in general: Surface plasmon resonance follows binding to a sensor surface in real time, without labels.
Experiment [5] addresses IgG. Put plainly: SPR (BIAcore T200), equilibrium value.
The target in experiment [6] is human serum-derived γ-globulin (Wako) (human). Briefly: DBC at 1 mL/min, 1 mg peptide column, after 1 cycle of 0.1 M NaOH washing.
Experiment [7] has the same target. Briefly: DBC at 1 mL/min, 1 mg peptide column, after 0 cycles of 0.1 M NaOH washing.
Experiment [8] shares this target. Put plainly: DBC at 1 mL/min, 1 mg peptide column, after 2 cycles of 0.1 M NaOH washing.
The target is the same in experiment [9]. Put plainly: DBC at 1 mL/min, 1 mg peptide column, after 3 cycles of 0.1 M NaOH washing.
Experiment [10] has the same target. Briefly: DBC at 1 mL/min, 1 mg peptide column, after 4 cycles of 0.1 M NaOH washing.
Experiment [11] has the same target. Briefly: DBC at 1 mL/min, 1 mg peptide column, after 5 cycles of 0.1 M NaOH washing.
Experiment [12] shares this target. Put plainly: dynamic binding capacity at 10% breakthrough; 1 mg peptide on 1-mL column; residence time 1 min.
Experiment [13] has the same target. Put plainly: dynamic binding capacity at 10% breakthrough; 1 mg peptide on 1-mL column; residence time 5 min.
Experiment [14] has the same target. Put plainly: dynamic binding capacity at 10% breakthrough; 4 mg peptide on 1-mL column; residence time 1 min.
Experiment [15] shares this target. Briefly: dynamic binding capacity at 10% breakthrough; 4 mg peptide on 1-mL column; residence time 5 min.
For experiment [16] the target is unchanged. Briefly: dynamic binding capacity at 10% breakthrough; 10 mg peptide on 1-mL column; residence time 1 min.
Experiment [17] shares this target. Put plainly: dynamic binding capacity at 10% breakthrough; 10 mg peptide on 1-mL column; residence time 5 min.
For experiment [18] the target is unchanged. Briefly: dynamic binding capacity at 10% breakthrough; 1 mg peptide on 1-mL column; residence time 2.5 min.
For experiment [19] the target is unchanged. Briefly: dynamic binding capacity at 10% breakthrough; 4 mg peptide on 1-mL column; residence time 2.5 min.
Experiment [20] shares this target. Put plainly: dynamic binding capacity at 10% breakthrough; 10 mg peptide on 1-mL column; residence time 2.5 min.
For experiment [21], the target named is IgG. Briefly: SPR as in Example 1 (BIAcore T200, IgG immobilized).

With “commercially available Protein A support MabSelect (GE Healthcare) (from UniProt P38507 37-327)”, the DBC in experiment [1] stood at 10; in experiment [2], 43.7; in [3], 24.3.

In general, Kd refers to the equilibrium constant for the complex coming apart. A higher Kd goes with a looser complex. Turning to “GPDCAYH(Xaa1)…-NH2 (SEQ ID NO:2, wherein Xaa1 is lysine), N-terminus blocked with biotinylated PEG4, intramolecular S-S bond (peptide)”, the Kd worked out at 0.156 µM with IgG [4] and 0.131 µM in the experiment with IgG [5].

“GPDCAYH(Xaa1)…-NH2 (SEQ ID NO:2, wherein Xaa1 is acetylated lysine), N-terminus blocked with biotinylated PEG4, intramolecular S-S bond (peptide)”: the results for the Kd with IgG [4] and with IgG [5] were 2.7 µM and 2.8 µM, respectively.

On to {Biotin-PEG4′}-GPDCAYHRGELVWCTFH-NH2 (disulfide 4-14 (inferred)), for which the Kd in the experiment with IgG [4] worked out at 0.0091 µM; with IgG [5], 0.01 µM.

For the molecule [PEG4′]GPDCAYHRGELVWCTFH-NH2 (linker 5-15 via 1,3‑dichloro‑2‑propanone), the DBC 10% turned out to be 4.8 mg/mL in experiment [6]; 4.8 mg/mL in experiment [7]; 4.9 mg/mL in experiment [8]; 4.8 mg/mL in experiment [9]; 4.8 mg/mL in experiment [10]; 4.7 mg/mL in [11]. In addition, the DBC 10% (% NaOH washing cycle 0) was 100% in experiment [6]; 100% in experiment [7]; 102% in experiment [8]; 100% in [9]; 100% in experiment [10]; 97.9% in [11]. For the same molecule, the DBC stood at 2.3 in experiment [12]; 7 in experiment [13]; 12.1 in experiment [14]; 23.1 in experiment [15]; 23.1 in [16]; 31.4 in [17]. Also, the values for the DBC in experiment [18], in experiment [19] and in experiment [20] were 3.4, 15.8 and 29.5, respectively.

Regarding {Biotin-PEG4′}-GPRCAYHRGELVWCSFH-NH2 (disulfide 4-14 (inferred)), the equilibrium dissociation constant (Kd) was 0.042 µM with IgG [4] and 0.056 µM with IgG [5].

As for {Fmoc-PEG4′}-GPDCAYHRGELVWCTFH-NH2 (linker 4-14 via thiocarbonyldiimidazole), the Kd with IgG [21] is 1 µM.

The molecule {Biotin-PEG4′}-GPDCAYHLGELVWCTFH-NH2 (disulfide 4-14 (inferred)) gave a Kd with IgG [4] of 0.0081 µM. That is a single-digit nanomolar value.

For {Biotin-PEG4′}-DCAYHRGELVWCT-NH2 (disulfide 2-12 (inferred)), the Kd with IgG [4] amounted to 0.054 µM; in the experiment with IgG [5], 0.0645 µM.
